From patent US20220281980A1
Where “and” joins values, the source holds several entries; their conditions need not be identical. Equal values may be shown once.

B1: 19G6 (antibody, V domains shown)
VH: QVQLVESGGGVVQPGRSLRLSCAASGFTFSNYAMHWVRQAPGEGLEWVALIWYDGSNKFYGDSVKGRFTISRDNSKNTLYLQMNSLSAEDTAVYYCAREGSGHYWGQGTLVTVSS
VL: AIQLTQSPSSLSASVGDRVTITCRASQGISSALAWYQQKPGKVPKSLIYDASSLESGVPSRFSGSGSGTDFTLTISSLQPEDFATYYCQQFNSYPITFGQGTRLEIK
B2: 16A5 (antibody, V domains shown)
VH: QVQLVESGGDVVQPGRSLRLSCAASGFTFSNYNIHWVRQAPGKGLEWVAVIRYDGINKYYADSVKGRFIISRDNSKNTLYLQMNSLRAEDTAVYYCASGPPDAFNIWGQGTMVTVSS
VL: B1 VL
B3: MICA.36 (antibody, V domains shown)
VH: B1 VH
VL: B1 VL

Key:
[1] = target: human MICA/B endogenously expressed on A2058 cells (MICA alleles *008/*018) (human) (UniProt Q29983); assay: flow cytometry, tumor cells with endogenous MICA/B
[2] = target: overexpressed human MICA*008 and MICB*005 on CHO cells; assay: Scatchard analysis, 125I-MICA.36 on transduced CHO cells
[3] = target: overexpressed cyno MICA/B (CHO clones #4 and #6); assay: as above

| Binder | EC50 [1] | Kd [2] [nM] | Kd [3] [nM] |
| --- | --- | --- | --- |
| B1 | 5.39 nM |  |  |
| B2 | 7.68 nM and 10.9 nM |  |  |
| B3 |  | 1 to 2 | 5 to 11 |
